Measurements published in publication PMC10954474, “https://orcid.org/0000-0002-6027-2265 Manakova Elena Institute of Biotechnology, Life Sciences Center, Vilnius University, Sauletekio av. 7, LT-10257, Vilnius, Lithuania”.

Assays:
AfAgo;AfAgo-N [1] = molecular target: T1, AfAgo;AfAgo-N (Archaeoglobus fulgidus …, UniProt O28951;A0A075WKW4 1-427;1-250, |); assay: EMSA; 5 mM Mg2+; EMSA: 40 mM Tris-acetate, 1 mM EDTA, pH 8.4, 5 mM Mg(OAc)2, 0.1 mg/ml BSA, 1 mM DTT, 10% glycerol, room temperature (25 C), 1 h; settings: protein: recombinant;recombinant, tags: ;His6-TEV (N-terminal), copies: 1;1, label: 5'-32P
AfAgo = molecular target: T2, AfAgo (Archaeoglobus fulgidus DSM4304, UniProt O28951 1-427); assay: as above; settings: protein: recombinant; label: 5'-32P; blunt
T2 sequence: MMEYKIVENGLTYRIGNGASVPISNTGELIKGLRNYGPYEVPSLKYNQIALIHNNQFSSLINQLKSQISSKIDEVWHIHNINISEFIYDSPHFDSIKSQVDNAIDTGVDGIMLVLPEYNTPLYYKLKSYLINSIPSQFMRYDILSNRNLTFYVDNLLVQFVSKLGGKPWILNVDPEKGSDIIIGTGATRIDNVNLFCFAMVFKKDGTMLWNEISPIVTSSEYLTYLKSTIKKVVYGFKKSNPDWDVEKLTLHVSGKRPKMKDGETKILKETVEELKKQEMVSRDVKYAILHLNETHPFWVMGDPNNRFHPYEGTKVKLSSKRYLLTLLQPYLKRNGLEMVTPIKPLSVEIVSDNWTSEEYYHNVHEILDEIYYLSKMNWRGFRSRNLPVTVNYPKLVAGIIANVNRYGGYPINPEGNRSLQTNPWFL

AfAgo;AfAgo-N [2] = molecular target: T1, AfAgo;AfAgo-N; assay: EMSA; preloaded guide, 5 mM Mg2+; EMSA: 40 mM Tris-acetate, 1 mM EDTA, pH 8.4, 5 mM Mg(OAc)2, 0.1 mg/ml BSA, 1 mM DTT, 10% glycerol, room temperature (25 C), 1 h; settings: protein: recombinant;recombinant; tags: ;His6-TEV (N-terminal); copies: 1;1; label: 5'-32P target; g1-g8 complementary
AfAgo;AfAgo-N [3] = molecular target: T1, AfAgo;AfAgo-N; assay: cryo-EM; 2.83 A; EMSA: 40 mM Tris-acetate, 1 mM EDTA, pH 8.4, 5 mM Mg(OAc)2, 0.1 mg/ml BSA, 1 mM DTT, 10% glycerol, room temperature (25 C), 1 h; settings: protein: recombinant;recombinant; tags: ;His6-TEV (N-terminal); copies: 1;1; 30 nt guide on 51 nt target with target overhangs
AfAgo;AfAgo-N [4] = molecular target: T1, AfAgo;AfAgo-N; assay: cryo-EM; 3.56 A; EMSA: 40 mM Tris-acetate, 1 mM EDTA, pH 8.4, 5 mM Mg(OAc)2, 0.1 mg/ml BSA, 1 mM DTT, 10% glycerol, room temperature (25 C), 1 h; settings: protein: recombinant;recombinant; tags: ;His6-TEV (N-terminal); copies: 1;1; blunt
AfAgo;AfAgo-N [5] = molecular target: T1, AfAgo;AfAgo-N; assay: X-ray crystallography; 2.5 A; 5 mM Mg2+; EMSA: 40 mM Tris-acetate, 1 mM EDTA, pH 8.4, 5 mM Mg(OAc)2, 0.1 mg/ml BSA, 1 mM DTT, 10% glycerol, room temperature (25 C), 1 h; settings: protein: recombinant;recombinant; tags: ;His6-TEV (N-terminal); copies: 1;1; 2 strands partially annealed, 3 bp, in crystal
AfAgo;AfAgo-N [6] = molecular target: T1, AfAgo;AfAgo-N; assay: SEC-SAXS; 5 mM Mg2+; SASDRX8; EMSA: 40 mM Tris-acetate, 1 mM EDTA, pH 8.4, 5 mM Mg(OAc)2, 0.1 mg/ml BSA, 1 mM DTT, 10% glycerol, room temperature (25 C), 1 h; settings: protein: recombinant;recombinant; tags: ;His6-TEV (N-terminal); copies: 1;1; blunt, self-complementary

Binder: ATTGTACACGGCCGAAT (ssDNA) [ssDNA MZ-1447]
- binding result (AfAgo;AfAgo-N [1]; single-stranded): binds

B1: RNA/DNA MZ-1480/1455 (DNA:RNA)
RNA: AUUGUACACGGCCGAAU
DNA: ATTCGGCCGTGTACAAT
modifications: 5'-phosphate
- binding result (AfAgo;AfAgo-N [1]; blunt): binds
- binding result (AfAgo): binds

B2: dsDNA MZ-1447/1455 (dsDNA)
DNA 1: ATTGTACACGGCCGAAT
DNA 2: ATTCGGCCGTGTACAAT
modifications: 5'-phosphate
- binding result (AfAgo;AfAgo-N [1]; blunt): binds
- binding result (AfAgo): binds

B3: gRNA MZ-1480 / tDNA MZ-1560 (DNA:RNA)
RNA: AUUGUACACGGCCGAAU
DNA: CGGAATATATGTACAAT
modifications: 5'-phosphate guide
- binding result (AfAgo;AfAgo-N [2]): binds

Binder: AUUGUACACGGCCGAAU (ssRNA) [ssRNA MZ-1480]
- binding result (AfAgo;AfAgo-N [1]; single-stranded): binds

B4: g30/t51 MZ-1745/MZ-1747 (DNA:RNA)
RNA: AGGAGGGCGGAGCCUAUGGAAAAACGCCAC
DNA: GCCGCGCCGGTGGCGTTTTTCCATAGGCTCCGCCCTCCTGCCAGAGTTCGC
modifications: 5'-phosphate guide
- binding result (AfAgo;AfAgo-N [3]): binds

B5: g17/t17 MZ-1800/MZ-1455 (DNA:RNA)
RNA: AUUGUACACGGCCGAAU
DNA: ATTCGGCCGTGTACAAT
modifications: 5'-phosphate guide
- binding result (AfAgo;AfAgo-N [4]): binds

Binder: ATCGACCAGGCTACG (ssDNA, 5'-phosphate) [GS-851]
- binding result (AfAgo;AfAgo-N [5]): binds

B6: MZ-1288 14 bp DNA (dsDNA)
DNA 1: ATTGTGGCCACAAT
DNA 2: ATTGTGGCCACAAT
modifications: 5'-phosphate
- binding result (AfAgo;AfAgo-N [6]): binds
